We go through seven molecules from patent publication US20170267986A1, “GENERATION OF MANNOSE-6-PHOSPHATE CONTAINING RECOMBINANT ALPHA-N-ACETYL GLUCOSAMINIDASE” (SHIRE HUMAN GENETIC THERAPIES, INC., priority 2014, published 2017).

Broadly, the Kd is the concentration at which binding is half-saturated.

For test [1], the target named is T1, rhNaglu (Homo sapiens, UniProt P54802).
T1 construct: The N-terminal 23 amino acids are cleaved as the precursor protein enters the endoplasmic reticulum, resulting in a mature form; made in house; host or cells: human fibrosarcoma HT1080 cell clone over-expressing rhNaglu
T1 sequence (P54802 24-743): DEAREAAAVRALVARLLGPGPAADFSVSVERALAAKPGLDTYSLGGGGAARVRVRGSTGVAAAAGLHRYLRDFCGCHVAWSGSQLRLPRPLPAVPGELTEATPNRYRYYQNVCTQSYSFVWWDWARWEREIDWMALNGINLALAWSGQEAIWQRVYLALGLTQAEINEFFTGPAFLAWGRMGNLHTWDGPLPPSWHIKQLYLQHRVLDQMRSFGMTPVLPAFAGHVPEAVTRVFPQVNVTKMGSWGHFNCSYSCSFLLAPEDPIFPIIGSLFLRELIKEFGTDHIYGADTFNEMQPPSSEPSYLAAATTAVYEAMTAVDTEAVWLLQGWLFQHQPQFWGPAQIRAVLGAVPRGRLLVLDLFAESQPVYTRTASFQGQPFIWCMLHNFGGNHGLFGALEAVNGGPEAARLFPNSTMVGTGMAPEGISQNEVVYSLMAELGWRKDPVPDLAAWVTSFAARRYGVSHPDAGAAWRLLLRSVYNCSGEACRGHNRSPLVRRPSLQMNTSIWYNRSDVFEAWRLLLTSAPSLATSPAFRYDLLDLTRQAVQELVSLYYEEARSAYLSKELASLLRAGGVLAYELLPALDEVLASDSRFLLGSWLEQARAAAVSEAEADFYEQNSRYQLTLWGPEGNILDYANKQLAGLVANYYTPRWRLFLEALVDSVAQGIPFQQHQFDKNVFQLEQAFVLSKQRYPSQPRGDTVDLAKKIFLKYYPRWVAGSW
Briefly: Naglu activity assay with various inhibitors (4MU-GlcNAc fluorescent substrate). Type of test: biochemical. Conditions: added at 0.0625, 0.25, 1, 4 and 8 mM; 37° C., 1 hour, pH 4.5. As for the experimental part: A 10 mM stock of Naglu activity substrate solution was prepared by dissolving 5 mg of substrate, i.e., 4-methylumbelliferyl-N-acetyl-α-D-glucosaminide, in 250 μl of 100% DMSO. Naglu activity assay reaction buffer (0.1 M sodium acetate, 0.5 mg/ml BSA, pH 4.5) was then added to bring the volume up to 1318 μl. This 10 mM substrate stock solution was then diluted 10 fold with reaction buffer to make the final 1 mM substrate solution.
Samples and controls were pre-diluted in reaction buffer. 10 μl of each pre-diluted sample/control were applied in duplicate wells on a black clear bottom 96 well plate. 75 μl of 1 mM substrate solution containing various concentrations of inhibitors were added to each well. The plates were sealed with plate sealer and wrapped with aluminum foil. The plates were then placed in a Boekel Jitterbug Microplate Incubator Shaker (Cole-Parmer, Vernon Hills, Ill.) and shaken (setting at #1) at 37° C. for 1 hour. 200 μl of Stop Buffer (0.2 M Glycine, pH 10.7) were then added to all of the wells and fluorescence emission (excitation/emission at 360 nm/460 nm, respectively) was measured using a SpectraMax® Plus M2 plate reader from Molecular Devices (Sunnyvale, Calif.).
To further confirm that rhNaglu could hydrolyze UDP-GlcNAc, we investigated whether UDP-GlcNAc inhibited the hydrolysis by rhNaglu of the fluorescent substrate 4MU-GlcNAc (4-methylumbelliferyl-N-acetyl-α-D-glucosaminide) in a Naglu activity assay. Briefly, UDP-GlcNAc, as well as GlcNAc, UDP-GalNAc and Glucosamine, were added to the Naglu activity assay at 0.0625, 0.25, 1, 4 and 8 mM concentrations. The fluorescence emitted from these samples was compared to control samples only including rhNaglu and 4MU-GlcNAc.

Test [2] addresses Soluble cation-independent mannose-6-phosphate receptor (sCI-M6PR). Briefly: plate-based sCI-M6PR binding ELISA (sCI-M6PR coated, HRP anti-Naglu polyclonal #2957 detection); KD extrapolated from binding curves.
The target of test [3] is T2, CI-M6PR (Homo sapiens, UniProt P11717).
T2 construct: the secreted sCI-M6PR was purified from the tissue culture medium; made in house
The experiment in a line: Plate based sCI-M6PR binding assay (ELISA). The method, then: (1) Generation of sCI-M6PR (soluble CI-M6PR)—Full length M6PR was expressed in genetically modified tissue culture cells, and the secreted sCI-M6PR was purified from the tissue culture medium using an aminophenyl-M6P conjugated resin (Beljaars et al., 1999). N-terminal sequencing and LC/MS/MS analysis of the obtained protein confirmed the amino acid sequence of the sCI-M6PR, and MALDI analysis confirmed that its molecular mass was 279,492 Da.
100 μl of sCI-M6PR(2.5 μg/ml) in DPBS were coated on MaxiSorp® Nunc-Immuno flat-bottom 96-well plates (Thermo Fisher Scientific, Inc., Sunnyvale, Calif.). After incubation for 1 hour at 37° C., the plates was washed with ELISA wash buffer (0.1% Tween-20 in DPBS). sCI-M6PR coated wells were blocked with 300 μl ELISA blocking buffer (DPBS, 2% BSA, 0.05% Tween 20) at 37° C. for 1 hour. Appropriate dilutions of sGNPT-modified Naglu-Kif (and rhNaglu as control) were made in blocking buffer and added to the wells. After 1 hour incubation at 37° C., the plates were washed with ELISA wash buffer, and 100 μl of HRP-conjugated rabbit anti-Naglu polyclonal antibody #2957 diluted in blocking buffer were added. After 1 hour incubation at 37° C., the plates was washed again with ELISA wash buffer. The ELISA was developed using TMB peroxidase substrate solution (KPL, Inc., Gaithersburg, Mass.) by following the manufacturer's protocol.
sGNPT transfers the phospho-GlcNAc group from UDP-GlcNAc to mannose sugar, and the resulting mannose-6-phosphate-GlcNAc is called the Capped-M6P. During the normal intracellular glycosylation process, the decapping enzyme (N-acetylglucosamine 1-phosphodiester α-N-acetyglucosaminidase) removes the GlcNAc from the Capped-M6P, to generate M6P. But without decapping, the Capped-M6P can also bind to CI-M6PR. Capped-M6P binds to domain 5 of CI-M6PR rather than to domain 3 or 9, as M6P does (Bohnsack et al. 2009). The amount of Capped-M6P on Naglu-Kif can be indirectly evaluated using a CI-M6PR plate binding assay. In this binding assay the affinity with which Naglu-Kif bound to CI-M6PR increased in proportion to the amount of sGNPT used (35 μg, 70 μg and 140 (corresponding to about 4.2 μM) (green, red and empty circle in FIG. 8, respectively)) to modify Naglu-Kif and thus the extent of Capped-M6P found on Naglu-Kif (FIG. 8). […] These binding reactions were repeated in two different buffer systems, i.e., in a sodium acetate buffer (40 mM NaAc pH 6.5, 10 mM MnCl2, 10 mM MgCl2) and in a Tris buffer (50 mM Tris pH 7.4, 10 mM MnCl2, 10 mM MgCl2), which gave similar results. Contrary to Naglu-Kif, rhNaglu was not phosphorylated by sGNPT under the same conditions due to the lack of high-mannose glycans.

Regarding `CC(=O)N[C@H]1C(O)O[C@H](CO)[C@@H](O)[C@@H]1O` (stereo partly drawn) [GlcNAc, N-acetylglucosamine], the “inhibition of rhNaglu activity toward 4MU-GlcNAc” value in test [1] is on record as “Inhibition”.
Still for that read-out and setting: the same measure for `N[C@H]1C(O)O[C@H](CO)[C@@H](O)[C@@H]1O` (stereo partly drawn) [glucosamine]: “not inhibited”.
Consider “Naglu-Kif (high-mannose-containing recombinant human Naglu) modified in vitro with 35 µg sGNPT (from UniProt P54802 24-743) (enzyme)”, for which the dissociation constant Kd in test [2] is 15.3 nM.
Same read-out and setting: the same measure for “Naglu-Kif (high-mannose-containing recombinant human Naglu) modified in vitro with 70 µg sGNPT (from UniProt P54802 24-743) (enzyme)”: 5.92 nM; for “Naglu-Kif (high-mannose-containing recombinant human Naglu) modified in vitro with 140 µg sGNPT (from UniProt P54802 24-743) (enzyme)”: 1.48 nM.
Take “uridine diphosphate N-acetyl galactosamine [UDP-GalNAc]”: in test [1], the “inhibition of rhNaglu activity toward 4MU-GlcNAc” value is “not inhibited”.

B1: Naglu-Kif: high-mannose-containing recombinant human Naglu purified from HT1080 cells grown with 2 mg/l Kifunensine; tested after sGNPT modification (protein)
chain: T1 sequence (P54802 24-743)
On to B1, for which the values for the Kd in test [3] (Naglu-Kif modified with 35 μg sGNPT), in test [3] (Naglu-Kif modified with 70 μg sGNPT) and in test [3] (Naglu-Kif modified with 140 sGNPT (about 4.2 μM)) were 15.3 nM, 5.92 nM and 1.48 nM, respectively.
